For 36 variants, abundance fitness results are on record in the Human Domainome abundance scans (Beltran et al. 2025).

± gives the uncertainty stated by the source.

First the molecules themselves.
B1: Gamma-crystallin C, residues 4 to 79; numbered along this chain, P07315 (parent)
chain: ITFYEDRAFQGRSYETTTDCPNLQPYFSRCNSIRVESGCWMLYERPNYQGQQYLLRRGEYPDYQQWMGLSDSIRSC

The variants in this data set derive from B1. The data set is described as follows: abundance fitness (aPCA) (normalised: wild type 0, dead -1); higher = more abundant; growth selection in yeast, the domain comes from the species named. The conditions noted are these: Homo sapiens.
As to ITFYETRAFQGRSYETTTDCPNLQPYFSRCNSIRVESGCWMLYERPNYQGQQYLLRRGEYPDYQQWMGLSDSIRSC [D6T], the abundance fitness came to 0.057 ± 0.13. With ITFYEQRAFQGRSYETTTDCPNLQPYFSRCNSIRVESGCWMLYERPNYQGQQYLLRRGEYPDYQQWMGLSDSIRSC [D6Q] the figure was 0.086 ± 0.22; with ITFYEKRAFQGRSYETTTDCPNLQPYFSRCNSIRVESGCWMLYERPNYQGQQYLLRRGEYPDYQQWMGLSDSIRSC [D6K], 0.086 ± 0.23. Turning to ITFYESRAFQGRSYETTTDCPNLQPYFSRCNSIRVESGCWMLYERPNYQGQQYLLRRGEYPDYQQWMGLSDSIRSC [D6S], the abundance fitness is -0.065 ± 0.097. The same measure for ITFYENRAFQGRSYETTTDCPNLQPYFSRCNSIRVESGCWMLYERPNYQGQQYLLRRGEYPDYQQWMGLSDSIRSC [D6N]: -0.035 ± 0.21. The same measure for ITFYERRAFQGRSYETTTDCPNLQPYFSRCNSIRVESGCWMLYERPNYQGQQYLLRRGEYPDYQQWMGLSDSIRSC [D6R]: 0.003 ± 0.059; for ITFYELRAFQGRSYETTTDCPNLQPYFSRCNSIRVESGCWMLYERPNYQGQQYLLRRGEYPDYQQWMGLSDSIRSC [D6L]: 0.032 ± 0.083. With ITFYEVRAFQGRSYETTTDCPNLQPYFSRCNSIRVESGCWMLYERPNYQGQQYLLRRGEYPDYQQWMGLSDSIRSC [D6V] the figure was -0.164 ± 0.14; with ITFYEYRAFQGRSYETTTDCPNLQPYFSRCNSIRVESGCWMLYERPNYQGQQYLLRRGEYPDYQQWMGLSDSIRSC [D6Y], 0.032 ± 0.23; with ITFYEDRHFQGRSYETTTDCPNLQPYFSRCNSIRVESGCWMLYERPNYQGQQYLLRRGEYPDYQQWMGLSDSIRSC [A8H], 0.016 ± 0.2. As for ITFYEDRSFQGRSYETTTDCPNLQPYFSRCNSIRVESGCWMLYERPNYQGQQYLLRRGEYPDYQQWMGLSDSIRSC [A8S], the abundance fitness was -0.016 ± 0.14.

In the case of ITFYEDRWFQGRSYETTTDCPNLQPYFSRCNSIRVESGCWMLYERPNYQGQQYLLRRGEYPDYQQWMGLSDSIRSC [A8W], the abundance fitness is -0.069 ± 0.051. The same measure for ITFYEDRVFQGRSYETTTDCPNLQPYFSRCNSIRVESGCWMLYERPNYQGQQYLLRRGEYPDYQQWMGLSDSIRSC [A8V]: -0.064 ± 0.069. Consider ITFYEDRCFQGRSYETTTDCPNLQPYFSRCNSIRVESGCWMLYERPNYQGQQYLLRRGEYPDYQQWMGLSDSIRSC [A8C], for which the abundance fitness came to 0.072 ± 0.092.

Regarding ITFYEDRPFQGRSYETTTDCPNLQPYFSRCNSIRVESGCWMLYERPNYQGQQYLLRRGEYPDYQQWMGLSDSIRSC [A8P], the abundance fitness is -0.312 ± 0.16.

Consider ITFYEDRRFQGRSYETTTDCPNLQPYFSRCNSIRVESGCWMLYERPNYQGQQYLLRRGEYPDYQQWMGLSDSIRSC [A8R], for which the abundance fitness is -0.005 ± 0.061. Take ITFYEDRFFQGRSYETTTDCPNLQPYFSRCNSIRVESGCWMLYERPNYQGQQYLLRRGEYPDYQQWMGLSDSIRSC [A8F]: the abundance fitness was -0.06 ± 0.13. For ITFYEDRDFQGRSYETTTDCPNLQPYFSRCNSIRVESGCWMLYERPNYQGQQYLLRRGEYPDYQQWMGLSDSIRSC [A8D], the abundance fitness is -0.275 ± 0.24. ITFYEDRMFQGRSYETTTDCPNLQPYFSRCNSIRVESGCWMLYERPNYQGQQYLLRRGEYPDYQQWMGLSDSIRSC [A8M]: the abundance fitness was found to be 0.013 ± 0.12.

Take ITFYEDRTFQGRSYETTTDCPNLQPYFSRCNSIRVESGCWMLYERPNYQGQQYLLRRGEYPDYQQWMGLSDSIRSC [A8T]: the abundance fitness was -0.016 ± 0.14. With ITFYEDREFQGRSYETTTDCPNLQPYFSRCNSIRVESGCWMLYERPNYQGQQYLLRRGEYPDYQQWMGLSDSIRSC [A8E] the figure was 0.103 ± 0.11; with ITFYEDRQFQGRSYETTTDCPNLQPYFSRCNSIRVESGCWMLYERPNYQGQQYLLRRGEYPDYQQWMGLSDSIRSC [A8Q], 0.007 ± 0.11; with ITFYEDRNFQGRSYETTTDCPNLQPYFSRCNSIRVESGCWMLYERPNYQGQQYLLRRGEYPDYQQWMGLSDSIRSC [A8N], 0.181 ± 0.34. With ITFYEDRIFQGRSYETTTDCPNLQPYFSRCNSIRVESGCWMLYERPNYQGQQYLLRRGEYPDYQQWMGLSDSIRSC [A8I] the figure was 0.001 ± 0.18; with ITFYEDRYFQGRSYETTTDCPNLQPYFSRCNSIRVESGCWMLYERPNYQGQQYLLRRGEYPDYQQWMGLSDSIRSC [A8Y], -0.101 ± 0.42; with ITFYEDRGFQGRSYETTTDCPNLQPYFSRCNSIRVESGCWMLYERPNYQGQQYLLRRGEYPDYQQWMGLSDSIRSC [A8G], 0.053 ± 0.1. For the variant ITFYEDRATQGRSYETTTDCPNLQPYFSRCNSIRVESGCWMLYERPNYQGQQYLLRRGEYPDYQQWMGLSDSIRSC [F9T], the abundance fitness is -0.56 ± 0.3.

As for ITFYEDRAVQGRSYETTTDCPNLQPYFSRCNSIRVESGCWMLYERPNYQGQQYLLRRGEYPDYQQWMGLSDSIRSC [F9V], the abundance fitness is -0.628 ± 0.24. With ITFYEDRALQGRSYETTTDCPNLQPYFSRCNSIRVESGCWMLYERPNYQGQQYLLRRGEYPDYQQWMGLSDSIRSC [F9L] the figure was 0.12 ± 0.16; with ITFYEDRAAQGRSYETTTDCPNLQPYFSRCNSIRVESGCWMLYERPNYQGQQYLLRRGEYPDYQQWMGLSDSIRSC [F9A], -0.139 ± 0.15. The same measure for ITFYEDRAQQGRSYETTTDCPNLQPYFSRCNSIRVESGCWMLYERPNYQGQQYLLRRGEYPDYQQWMGLSDSIRSC [F9Q]: -0.207 ± 0.39.

As for ITFYEDRAMQGRSYETTTDCPNLQPYFSRCNSIRVESGCWMLYERPNYQGQQYLLRRGEYPDYQQWMGLSDSIRSC [F9M], the abundance fitness is -0.095 ± 0.19.

As to ITFYEDRACQGRSYETTTDCPNLQPYFSRCNSIRVESGCWMLYERPNYQGQQYLLRRGEYPDYQQWMGLSDSIRSC [F9C], the abundance fitness is 0.12 ± 0.13. The same measure for ITFYEDRAWQGRSYETTTDCPNLQPYFSRCNSIRVESGCWMLYERPNYQGQQYLLRRGEYPDYQQWMGLSDSIRSC [F9W]: -0.028 ± 0.067. The same measure for ITFYEDRASQGRSYETTTDCPNLQPYFSRCNSIRVESGCWMLYERPNYQGQQYLLRRGEYPDYQQWMGLSDSIRSC [F9S]: -0.617 ± 0.18; for ITFYEDRAEQGRSYETTTDCPNLQPYFSRCNSIRVESGCWMLYERPNYQGQQYLLRRGEYPDYQQWMGLSDSIRSC [F9E]: -0.367 ± 0.21.
